For 40 sequences, Kd and IC50 results are on record in the Immune Epitope Database (IEDB).

For test [1], the target named is HLA-A*68:02. The experiment in a line: IEDB peptide-MHC binding, purified MHC/competitive/radioactivity; filed as Kd, often an IC50 or EC50 that approximates it; ≥ and ≤ were set here for values at or beyond the usual limits of such assays.
Test [2] addresses HLA-B*07:02. Described as above.
The target of test [3] is HLA-B*15:01. The test is described as above.
The target in test [4] is HLA-A*32:01. Described as above.
The target of test [5] is HLA-B*08:01. The description is as above.
The target of test [6] is HLA-B*18:01. The test can be described thus: IEDB peptide-MHC binding, purified MHC/direct/fluorescence; filed as Kd, often an IC50 or EC50 that approximates it; ≥ and ≤ were set here for values at or beyond the usual limits of such assays.
The target in test [7] is HLA-A*24:02. The test can be described thus: IEDB peptide-MHC binding, purified MHC/competitive/fluorescence; ≥ and ≤ were set here for values at or beyond the usual limits of such assays.
Test [8] concerns the target HLA-A*02:01. The description is as above. The following applies: source organism: Zaire ebolavirus.
Test [9] addresses HLA-A*26:01. The experiment in a line: IEDB peptide-MHC binding, purified MHC/direct/fluorescence; filed as Kd, often an IC50 or EC50 that approximates it; ≥ and ≤ were set here for values at or beyond the usual limits of such assays.
The target in test [10] is HLA-B*39:01. The test can be described thus: IEDB peptide-MHC binding, purified MHC/competitive/fluorescence; filed as Kd, often an IC50 or EC50 that approximates it; ≥ and ≤ were set here for values at or beyond the usual limits of such assays.
For test [11], the target named is HLA-A*30:01. The test can be described thus: IEDB peptide-MHC binding, purified MHC/competitive/radioactivity; filed as Kd, often an IC50 or EC50 that approximates it; ≥ and ≤ were set here for values at or beyond the usual limits of such assays.
The target of test [12] is HLA-A*26:01. The test is described as above.
In test [13] the target is HLA-A*29:02. The test is described as above.
The target of test [14] is HLA-A*01:01. The test is described as above.
Test [15] has as its target HLA-A*30:02. The description is as above.
Test [16] concerns the target HLA-A*02:06. The description is as above. The following applies: source organism: Homo sapiens.
For test [17], the target named is HLA-B*40:01. The test can be described thus: IEDB peptide-MHC binding, purified MHC/direct/fluorescence; filed as Kd, often an IC50 or EC50 that approximates it; ≥ and ≤ were set here for values at or beyond the usual limits of such assays. The conditions noted are these: source organism: Orthohantavirus hantanense.
Where [18] appears, read: source organism: Dengue virus 3 Martinique/1243/1999.
[19] abbreviates: source organism: Dengue virus 2 Jamaica/1409/1983.
The mark [20] stands for this setting: source organism: Vaccinia virus WR.
[21] abbreviates: source organism: Zaire ebolavirus.
Where [22] appears, read: source organism: Dengue virus 4 Philippines/H241/1956.
Setting [23] is: source organism: Mammarenavirus guanaritoense.
[24] abbreviates: source organism: Vaccinia virus Copenhagen.
[25] abbreviates: source organism: Lymphocytic choriomeningitis virus (strain Armstrong).

For the sequence DLSDQIAEL, in test [1] (source organism: Homo sapiens), the Kd (usually the equilibrium constant for the complex coming apart) is 486 nM.
As for TPRAKRGTAQ, the Kd in [2] (source organism: Dengue virus 1 Brazil/97-11/1997) was 113 nM.
As to KLMSGKDVF, the Kd amounted to 5.6 nM in test [3] (setting [18]) and 507 nM in [4] (setting [18]).
MRRGDLPVWL: the Kd in [5] (setting [19]) came out at 5800 nM.
Turning to YHPVYILPY, the Kd in [6] (source organism: Campylobacter jejuni RM1221) stood at 1430 nM.
As to MMMKRLMFE, the Kd in test [5] (setting [20]) worked out at 75 nM.
In the case of LEDDRERLK, the IC50 – broadly, the point on the concentration scale where inhibition reaches its midpoint – in test [7] (source organism: Variola virus) is 2280 nM.
For the sequence ARFSGLLIV, the IC50 is no less than 461000 nM in test [8] and no less than 267000 nM in [7] (setting [21]).
On to YTNSVTNIEL, for which the Kd in [1] (setting [22]) came out at 19.8 nM.
Consider SNKYRIKSV, for which the Kd in [5] (setting [20]) worked out at 2.66 nM.
Consider TSIGKALHQV, for which the Kd in test [1] (setting [19]) was 10.4 nM.
In [9] (setting [23]), EFCDMLRLF displayed a Kd of no less than 20000 nM.
Consider SKRTKSKIL, for which the Kd in [5] (setting [20]) was found to be 140 nM.
On to AVLFVVTLI, for which, in [4] (setting [22]), the Kd was 1270 nM.
Turning to IMKIGIGVLL, the Kd in [5] (source organism: Dengue virus 3 Singapore/8120/1995) worked out at 4310 nM.
SHRPVVLTG registered an IC50 in test [7] (source organism: Variola virus) of no less than 71300 nM.
Sequence MQESGVSKL gave a Kd in test [10] (source organism: Bacillus anthracis str. A0488) of 11.4 nM.
For the sequence LTIFSTIIF, in test [4] (setting [24]), the Kd was 264 nM.
In the case of QSIFRFLNI, the Kd in test [4] (setting [20]) amounted to 299 nM.
The sequence DQIGDIIIA gave an IC50 in test [7] (source organism: Variola virus) of 790 nM.
SIRFHIKEL: in [5] (setting [20]), the Kd came out at 0.453 nM.
The same measure, in the same setting: to VVAMRHLSL belongs 0.976 nM.
Consider KTRNVIRNI, for which the figures for the Kd in [4] (setting [20]) and in [11] (setting [20]) were 319 nM and 0.0718 nM, respectively.
As for PSLCRVNNSY, the Kd in [12] (setting [23]) is 16000 nM; in test [13] (setting [23]), no less than 20100 nM; in [4] (setting [23]) it was 9850 nM; in test [14] (setting [23]) it was 1220 nM; in [15] (setting [23]), 287 nM; in test [11] (setting [23]), 11200 nM.
With ESFVRKQKY, the Kd in [12] (setting [25]) is 4020 nM; in test [13] (setting [25]) it was no less than 65100 nM; in [4] (setting [25]), no less than 77800 nM; in test [14] (setting [25]), 10800 nM; in test [15] (setting [25]), 3140 nM; in test [11] (setting [25]), 12200 nM.
In test [10] (source organism: Giardia lamblia ATCC 50803), FQSDIPPLL registered a dissociation constant (Kd) of 8.7 nM.
For the sequence NITDKIDQI, the IC50 in [8] stood at 25300 nM; in test [7] (setting [21]), 9670 nM.
For LLFFLALSI, the Kd in [3] (setting [24]) amounted to 134 nM; in test [4] (setting [24]), 500 nM.
On to ETQHGTILI, for which the Kd in [1] (setting [18]) is 21.5 nM; in test [12] (setting [18]) it was 12200 nM.
For SPARLASAIL, the Kd in test [2] (setting [22]) turned out to be 5.75 nM.
For the sequence IKRGLRTLIL, the Kd in test [5] (setting [19]) came out at 10300 nM.
Take RQLTKFTDF: the Kd in test [5] (setting [20]) amounted to 155 nM.
NINRLILNF: the Kd in test [4] (setting [20]) came to 2630 nM.
In test [9] (source organism: Salmonella enterica subsp. enterica serovar Paratyphi A str. ATCC 9150), DVSEWDAVY displayed a dissociation constant Kd of 4 nM.
In test [7] (setting [21]), DDDDDIPFP displayed an IC50 of no less than 124000 nM.
RLKQLKRQL: the Kd in [1] (source organism: Homo sapiens) was 8310 nM; in test [16], no less than 61900 nM.
As to KLNKMTVEL, the Kd in test [4] (setting [20]) was 1.68 nM.
On to SGIFITDNV, for which, in [1] (setting [19]), the Kd is 12.1 nM.
Take EEAIGKVLL: the Kd turned out to be 1720 nM in [6] (source organism: Orthohantavirus hantanense) and 13.7 nM in test [17].
Turning to NTNSVTNIEL, the Kd in test [1] (source organism: Dengue virus 4 Dominica/814669/1981) was determined as 38.8 nM.
